In patent US20180362629A1 (ZOETIS BELGIUM S A, published 2018):
Values joined by “and” are separate entries in the source; they are usually repeats but may differ in a detail not shown here. Equal values may be shown once.

Assays:
human β NGF [1] = target: T1, human β NGF (human, UniProt P01138 122-241, biotinylated in the TrkA inhibition ELISA (sites not given)); experiment: TrkA inhibition ELISA; biotin-hNGF bound to rat TrkA/Fc; supernatant 25-fold
Procedure: (§1) The plates were washed three times with PBS/Tween. The plates were blocked with 200 μl/well of 2% milk in PBS for 1 hour at room temperature. The plates were washed three times as above. Rat TrkA/Fc chimera (R&D Systems, catalog #1056-TK) was added at 1 μg/ml (50 μl/well) in PBS/0.1% BSA and then incubated for 1 hour at room temperature. Biotinylated human NGF was titered and pre-incubated with anti-NGF antibody supernatants diluted 1-fold, 5-fold, and 25-fold, or purified anti-NGF mAbs diluted to 0.08, 0.4, 2, or 10 μg/ml for 1 hour at room temperature on a plate shaker. The negative control was unrelated conditioned supernatant. The positive control was sera from a mouse immunized with NGF. The plates were washed and then 50 μl of each biotinylated NGF/Ab mix was added to the appropriate wells. The plates were incubated for 1 hour at room temperature. The plates were washed. […] The plates were incubated for 30 min at room temperature. The plates were washed. 50 μl of TMB (Invitrogen, cat #00-2023) was added and the reaction was stopped using 2N H₂SO₄ (VWR, cat # BDH3500-1). The absorbance at 450 nm was read on a Spectromax 2E plate reader (Molecular Devices), and the absorbance readings are shown in Table 5 The numerical value indicates binding of biotinylated human β NGF to rat TrkA/Fc chimera.

human β NGF [2] = target: T1, human β NGF; experiment: TrkA inhibition ELISA; biotin-hNGF bound to rat TrkA/Fc; supernatant 5-fold
Procedure: as §1

human β NGF [3] = target: T1, human β NGF; experiment: TrkA inhibition ELISA; biotin-hNGF bound to rat TrkA/Fc; supernatant 1-fold
Procedure: as §1

recombinant canine β NGF [4] = target: T2, recombinant canine β NGF (canine, UniProt Q29074 110-229 (pig entry)); experiment: cell-based or functional assay
T2 chain: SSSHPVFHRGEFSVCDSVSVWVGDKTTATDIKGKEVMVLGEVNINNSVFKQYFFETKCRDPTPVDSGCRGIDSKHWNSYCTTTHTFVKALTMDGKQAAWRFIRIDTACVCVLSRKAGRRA

recombinant canine β NGF [5] = target: T2, recombinant canine β NGF; experiment: SPR (Biacore), mAb captured on goat anti-mouse IgG Fc, canine NGF injected; Expt 1
Procedure: (§2) A biomolecular protein interaction analysis was used to evaluate the binding kinetics of the interaction between the purified anti-NGF hybridoma antibodies and recombinant canine β NGF. The antibodies were captured using a goat anti-mouse IgG FC (10000 RU) surface which was directly immobilized to a CM5 chip using an amine coupling procedure according to the manufacturer's instructions (Biacore). A sample size of 5 μl of antibody at a concentration of 1 μg/ml was captured at 10 μl minute. Recombinant canine NGF was used as the antigen. Canine NGF was injected at 75 μl/min (concentration range: 5-0.039 nM) for mouse antibodies. The association rate was monitored for 3.3 minutes and the dissociation rate was monitored for 10 minutes. Aliquots of canine NGF were also simultaneously injected over a reference reaction CM surface to record any nonspecific binding background. The instrument sensitivity for on-rate is I×IO⁷, such that any on-rate that is faster than I×IO⁷ may not be accurately measured; the instrument sensitivity for off-rate is […], such that any off-rate that is slower than 1×10⁻⁶ may not be accurately measured. Therefore, an on-rate that is faster than 1×10⁷ is recorded as >1×10⁷ and an off-rate that is slower than 1×10⁻⁶ is recorded as <1×10⁻⁶.

recombinant canine β NGF [6] = target: T2, recombinant canine β NGF; experiment: SPR (Biacore), mAb captured on goat anti-mouse IgG Fc, canine NGF injected; Expt 2
Procedure: as §2

recombinant canine β NGF [7] = target: T2, recombinant canine β NGF; experiment: SPR (Biacore), mAb captured on goat anti-mouse IgG Fc, canine NGF injected; Average
Procedure: as §2

recombinant canine β NGF [8] = target: T2, recombinant canine β NGF; experiment: cell-based or functional assay
recombinant canine β NGF [9] = target: T2, recombinant canine β NGF; experiment: direct ELISA, canine NGF coated at 1 µg/ml, mAb at 0.4 µg/ml
Procedure: (§3) To determine if purified mouse anti-NGF mAbs bind to canine β NGF, ELISA plates were coated with 50 μl/well of canine NGF (Abbott Laboratories) at 1 μg/ml in PBS and incubated over night at 4° C. The plates were washed three times with PBS+Tween buffer. The plates were blocked with 200 μl/well of 2% milk in PBS for 1 hour at room temperature. The plates were washed three times as above. Purified antibodies were diluted to 0.4, 2, or 10 μg/ml. 50 μl of each concentration of purified antibody was added to the plates. The plates were incubated for 1 hour at room temperature. The plates were washed. 50 μl of a 5000-fold diluted goat anti-mouse IgG Fc-HRP (Thermo, catalog #31439) was added. The plates were incubated for 1 hour at room temperature. 50 μl of TMB (Invitrogen, catalog #00-2023) was added and the reaction was stopped using 2N H₂SO₄ (VWR, catalog # BDH3500-1). The absorbance at 450 nm was read on a Spectromax 2E plate reader (Molecular Devices). The results are shown in Table 9, and the numerical value indicates binding of mouse anti-NGF antibodies to canine β NGF.

recombinant canine β NGF [10] = target: T2, recombinant canine β NGF; experiment: direct ELISA, canine NGF coated at 1 µg/ml, mAb at 10 µg/ml
Procedure: as §3

recombinant canine β NGF [11] = target: T2, recombinant canine β NGF; experiment: direct ELISA, canine NGF coated at 1 µg/ml, mAb at 2 µg/ml
Procedure: as §3

T1 sequence (P01138 122-241 limits assumed): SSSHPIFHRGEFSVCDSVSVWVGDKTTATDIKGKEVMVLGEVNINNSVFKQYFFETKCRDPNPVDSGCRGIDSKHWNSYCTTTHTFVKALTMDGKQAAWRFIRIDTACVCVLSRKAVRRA

Molecule: unrelated conditioned supernatant (negative control)
- absorbance at 450 nm (human β NGF [1]): 0.462 OD450 and 0.318 OD450 and 0.386 OD450
- absorbance at 450 nm (human β NGF [2]): 0.456 OD450 and 0.336 OD450 and 0.388 OD450
- absorbance at 450 nm (human β NGF [3]): 0.465 OD450 and 0.372 OD450 and 0.386 OD450

B1: PR-1254972 (antibody, mouse IgG2b, V domains shown)
VH: EVHLVESGGGLVKPGGFLILSCAASGFTFSDYYMFWIRQTPGKRLEWVATISDGGSYTYYTDNVKGRFTISRDNVKNNLYLQMSHLKSADTAMYYCARDWSDSEGFAYWGQGTLVTVSA
VL: DVLMTQTPLSLPVSLGDQASISCRSSQSIVQSNGNTYLEWYLQKPGQSPKLLIYKVSNRFSGVPDRFSGSGSGTDFTLKISRVEAEDLGVYYCFQGSHVPFTFGSGTKLEIKR
notes: also called 20B10; ML129-20B10.3F4
- PathHunter IC50 (441 pM canine NGF) (recombinant canine β NGF [4]): 0.313 nM
- SureFire pERK IC50 (128 pM canine β NGF) (recombinant canine β NGF [4]): 0.228 nM
- Kd (recombinant canine β NGF [5]): < 314 pM
- koff (recombinant canine β NGF [5]): 0.00314 s⁻¹
- kon (recombinant canine β NGF [5]): > 1e+07 M⁻¹ s⁻¹
- Kd (recombinant canine β NGF [6]): < 321 pM
- koff (recombinant canine β NGF [6]): 0.00321 s⁻¹
- kon (recombinant canine β NGF [6]): > 1e+07 M⁻¹ s⁻¹
- Kd (recombinant canine β NGF [7]): < 318 pM
- koff (recombinant canine β NGF [7]): 0.00318 s⁻¹
- kon (recombinant canine β NGF [7]): > 1e+07 M⁻¹ s⁻¹
- IC50, canine NGF-induced TF-1 cell proliferation (70 pM canine NGF) (recombinant canine β NGF [8]): 0.303 nM
- absorbance at 450 nm (recombinant canine β NGF [9]): 0.071 A450
- absorbance at 450 nm (recombinant canine β NGF [10]): 0.154 A450
- absorbance at 450 nm (recombinant canine β NGF [11]): 0.091 A450

B2: 14A9 hybridoma supernatant (antibody, mouse IgG1, V domains shown)
VH: EVQLVESGGGAVKPGGSLTLSCAASGFTFSNHYMYWVRQTPEKRLEWVASISDGGAYTFYPDTVKGRFTISRDNVNNNLYLQMRHLKSEDTAMYYCTREESANNGFAFWGQGTLVTVSA
VL: DVLMTQTPLSLPVSLGDQASISCRSSQSILHSNGNTYLEWYLQKPGQSPNLLIYRVSNRFSGVPDRFSGSGSGTDFTLKISRVEAEDLGVYYCFQGAHVPFTFGSGTKLEIKR
notes: Tested as supernatant of the hybridoma before subcloning; mouse IgG1 kappa; also called ML130-14A9.5B12
- absorbance at 450 nm (human β NGF [1]): 0.376 OD450
- absorbance at 450 nm (human β NGF [2]): 0.208 OD450
- absorbance at 450 nm (human β NGF [3]): 0.121 OD450

B3: 20B10 hybridoma supernatant (antibody, mouse IgG2b, V domains shown)
VH: EVHLVESGGGLVKPGGFLILSCAASGFTFSDYYMFWIRQTPGKRLEWVATISDGGSYTYYTDNVKGRFTISRDNVKNNLYLQMSHLKSADTAMYYCARDWSDSEGFAYWGQGTLVTVSA
VL: DVLMTQTPLSLPVSLGDQASISCRSSQSIVQSNGNTYLEWYLQKPGQSPKLLIYKVSNRFSGVPDRFSGSGSGTDFTLKISRVEAEDLGVYYCFQGSHVPFTFGSGTKLEIKR
notes: Tested as supernatant of the hybridoma before subcloning; mouse IgG2b kappa; also called ML129-20B10.3F4
- absorbance at 450 nm (human β NGF [1]): 0.289 OD450
- absorbance at 450 nm (human β NGF [2]): 0.2 OD450
- absorbance at 450 nm (human β NGF [3]): 0.166 OD450

B4: 3F7 hybridoma supernatant (antibody, mouse IgG1, V domains shown)
VH: QVQLKESGPGLVAPSQSLSITCTVSGFSLTGYNINWVRQPPGKGLEWLGMIWGYGDTDYNSALKSRLSISKDNSKSQVFLKMNSLQTDDTARYYCARDHYGGNDWYFDVWGTGTTVTVSS
VL: DIQMTQTTSSLSASLGDRVTITCRASQDITNYLNWYQQKPDGTVKLLIYYTSRLHSGVPSRFSGSGSGTDYSLTISNLDQEDIATYFCQQGKTLPRTFGGGTKLEIKR
notes: Tested as supernatant of the hybridoma before subcloning; mouse IgG1 kappa; also called ML130-3F7.4A8
- absorbance at 450 nm (human β NGF [1]): 0.149 OD450
- absorbance at 450 nm (human β NGF [2]): 0.083 OD450
- absorbance at 450 nm (human β NGF [3]): 0.056 OD450

B5: PR-1254977 (antibody, mouse IgG1, V domains shown)
VH: EVQLQQSGAELVKPGASVKLSCTASGFNIKDTYIYWVKQRPEQGLEWIGRIDPANGNTIYASKFQGKASITADTSSNTAYMQLSSLTSGDTAVYYCAGYGYYAYWGQGTTLTVSS
VL: DVVLTQTPLSLPVNIGDQASISCKSTKSLLNGDGFTYLDWYLQKPGQSPQLLIYLVSNRFSGVPDRFSGSGSGTDFTLKISRVEAEDLGVYYCFESNYLFTFGSGTKLEMKR
notes: also called 21D4; ML129-21D4.4A11
- PathHunter IC50 (441 pM canine NGF) (recombinant canine β NGF [4]): 0.181 nM
- SureFire pERK IC50 (128 pM canine β NGF) (recombinant canine β NGF [4]): 17.6 pM
- Kd (recombinant canine β NGF [5]): < 13.9 pM
- koff (recombinant canine β NGF [5]): 0.000139 s⁻¹
- kon (recombinant canine β NGF [5]): > 1e+07 M⁻¹ s⁻¹
- Kd (recombinant canine β NGF [6]): < 16 pM
- koff (recombinant canine β NGF [6]): 0.00016 s⁻¹
- kon (recombinant canine β NGF [6]): > 1e+07 M⁻¹ s⁻¹
- Kd (recombinant canine β NGF [7]): < 15 pM
- koff (recombinant canine β NGF [7]): 0.00015 s⁻¹
- kon (recombinant canine β NGF [7]): > 1e+07 M⁻¹ s⁻¹
- IC50, canine NGF-induced TF-1 cell proliferation (70 pM canine NGF) (recombinant canine β NGF [8]): 0.217 nM
- absorbance at 450 nm (recombinant canine β NGF [9]): 0.223 A450
- absorbance at 450 nm (recombinant canine β NGF [10]): 0.552 A450
- absorbance at 450 nm (recombinant canine β NGF [11]): 0.414 A450

B6: 23F1 hybridoma supernatant (antibody, mouse IgG1, V domains shown)
VH: EVQLQQSGAELVKPGASVKLSCTASGFNIKDTYIYWVKQRPEQGLEWIGRIDPANGNTIYASKFQGKATITADTSSNTAYMQLSSLTSGDTAVYYCAGYGYYAYWGQGTTLTVSS
VL: DVVLTQTPLSLPVNIGDQASISCKSTKSLLNGDGFTYLDWYLQKPGQSPQLLIYLVSNRFSGVPDRFSGSGSGTDFTLKISRVEAEDLGVYYCFESNYLFTFGSGTKLEMKR
notes: Tested as supernatant of the hybridoma before subcloning; mouse IgG1 kappa; also called ML129-23F1.4G3
- absorbance at 450 nm (human β NGF [1]): 0.276 OD450
- absorbance at 450 nm (human β NGF [2]): 0.14 OD450
- absorbance at 450 nm (human β NGF [3]): 0.108 OD450

B7: 21D4 hybridoma supernatant (antibody, mouse IgG1, V domains shown)
VH: EVQLQQSGAELVKPGASVKLSCTASGFNIKDTYIYWVKQRPEQGLEWIGRIDPANGNTIYASKFQGKASITADTSSNTAYMQLSSLTSGDTAVYYCAGYGYYAYWGQGTTLTVSS
VL: DVVLTQTPLSLPVNIGDQASISCKSTKSLLNGDGFTYLDWYLQKPGQSPQLLIYLVSNRFSGVPDRFSGSGSGTDFTLKISRVEAEDLGVYYCFESNYLFTFGSGTKLEMKR
notes: Tested as supernatant of the hybridoma before subcloning; mouse IgG1 kappa; also called ML129-21D4.4A11
- absorbance at 450 nm (human β NGF [1]): 0.404 OD450
- absorbance at 450 nm (human β NGF [2]): 0.242 OD450
- absorbance at 450 nm (human β NGF [3]): 0.133 OD450
